Test results taken from article PMC3871271 (FEBS Open Bio, 2013).
Where two headings read alike, the source gives them in different places.

Experiments:
Assay in all cases: ITC
[1] = target: T1, C-terminal domain of Scherffelia dubia centrin, wild type (Scherffelia dubia, UniProt Q06827 93-168)
T1 sequence (looked up): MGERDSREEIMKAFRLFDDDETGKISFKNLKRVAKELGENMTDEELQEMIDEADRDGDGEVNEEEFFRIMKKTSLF

[2] = target: T1, C-terminal domain of Scherffelia dubia …; remark: listed apart in the source
[3] = target: T1, C-terminal domain of Scherffelia dubia …; remark: listed apart in the source
[4] = target: T1, C-terminal domain of Scherffelia dubia …; remark: listed apart in the source

Ka [1]: 7.32e+07 M⁻¹
dH [1]: -23.4 kcal/mol
Ka [2]: 3.02e+07 M⁻¹
dH [2]: -33.8 kcal/mol
Ka [3]: 5.94e+07 M⁻¹
dH [3]: -23.4 kcal/mol
dH [4]: -40.6 kcal/mol
B1: P17-XPC peptide (peptide)
peptide: Ac-NWKLLAKGLLIRERLKR-NH2
